We go through one molecule from patent US20140377262A1.

Broadly, the Kd is the constant that tells how readily two partners part at equilibrium. The low end stands for a tighter complex, the high end for a looser complex.

Where only a bound is given, the exact number is not on record here.

For assay [1], the target named is HA protein of B/Florida/4/2006 (vaccine antigen) (influenza B virus B/Florida/4/2006).
The target in assay [2] is HA protein of B/Victoria/2/1987 (influenza B virus B/Victoria/2/1987). The assay is described as follows: cell-based or functional assay.
Assay [3] addresses HA protein of B/Mie/1/1993 (influenza B virus B/Mie/1/1993). The experiment in a line: cell-based or functional assay.
Assay [4] deals with HA protein of B/Florida/4/2006 (influenza B virus B/Florida/4/2006). The assay is described as follows: cell-based or functional assay.
Assay [5] has as its target HA protein of B/Shandong/7/1997 (influenza B virus B/Shandong/7/1997). The assay is described as follows: cell-based or functional assay.
Assay [6] deals with HA protein of B/Yamanashi/166/1998 (influenza B virus B/Yamanashi/166/1998). The assay is described as follows: cell-based or functional assay.
Assay [7] addresses HA protein of B/Shanghai/361/2002 (influenza B virus B/Shanghai/361/2002). The assay is described as follows: cell-based or functional assay.
Assay [8] concerns the target HA protein of B/Malaysia/2506/2004 (influenza B virus B/Malaysia/2506/2004). The assay is described as follows: cell-based or functional assay.
The target of assay [9] is HA protein of B/Johannesburg/5/1999 (influenza B virus B/Johannesburg/5/1999). The experiment in a line: cell-based or functional assay.

B1: HuMAb 5A7 (human monoclonal antibody from hybridoma) (antibody, V domains shown)
VH: QVQLVESGGDVVQPGRSLRLSCAASGFTFNNYGMHWVRQAPGKGLEWVAVVWYDGLIKYYADSVKGRFTISRDNSKNTLYLQMNTLRAEDMGVYYCARDLQPPHSPYGMDVWGQGTTVTVSS
VL: QSVLTQPPSASGTPGQRVTISCSGSSSNIGSNDVYWYQNLPGTAPKLLIYNNNQRPSGVPDRFSGSKSGTSASLAISGLRSEDEADYYCAAWDDSLTVSFGTGTKVTVL
For the molecule B1, the Kd in [1] was under 5.6 nM. Further, the VN50 in assay [2] worked out at 25 µg/mL; in assay [3] it was 6.25 µg/mL; in assay [4], 6.25 µg/mL; in [5] it was 25 µg/mL; in assay [6], 6.25 µg/mL; in assay [7], 6.25 µg/mL. In addition, the VN50 in assay [8] and in [9] was 6.25 µg/mL throughout. In addition, the Fusion inhibition in [4] is 100 µg/mL. The same molecule registered an HI in [4] of 25 µg/mL.
